Molecular target: ADDomer-SpyTag (human adenovirus type 3)
Experiment: covalent SpyTag/SpyCatcher adduct on SDS-PAGE

SpyCatcher
stoichiometry N (copies per particle): 60
